In paper PMC8392543:
Positions count from the first letter of the chain named. Numbers in names are those of the source.

B1: EsOgl (Exiguobacterium artemiae 255-15; A109P/E176P/K441P/S130P) (protein)
chain: MERKWWHDSVVYQIYPRSFNDSNGDGIGDLVGIIEKLDYLKELGIDVIWLSPVYDSPNDDNGYDIRDYEAIMSEFGTMADFDRLLDQAHERGIKIVMDLVINHSSDEHPWFAESRKSKDNPYRDYYIWRPANEDGTLPNNWGSIFSGPAWELDEATNEYYLHLFSKKQPDLNWENPKLRQEVYQMITRWLDRGIDGFRMDVINLISKTPGLPDATVPPGALYGDGGQHYINGPRIHEFLKEMNDASFGNYDVLTVGEMPGATTDDAILYTDPERKEVNMVFTFEHMDLDSGPGGKWDVKPFDLQKLKENFTKWQVALHEKGWNSLYWNNHDQPRVVSRFGNDTTYRVESAKMLATLLHLLKGTPYIYQGEEIGMTNVAFESIEDYEDIEIRNMWKERTEQGASPAELLRAVHVKGRDNARTPIQWDATEHAGFTTGTPWLPVNPNYPTINVEQALEDPDSIFYYYKQLIALRHQHDVIVYGEYALILEEETDIYAYTRTYENETWYIYCSFSQEEVTVPLSHDTSDPVIGNYSESPAGSKEELVLRPYEAIVYRTTR
B2: EsOgl (Exiguobacterium artemiae 255-15; A109P) (protein)
chain: B1 chain with P130S, P176E, P441K
B3: EsOgl (Exiguobacterium artemiae 255-15) (protein)
chain: B1 chain with P109A, P130S, P176E, P441K
B4: EsOgl (Exiguobacterium artemiae 255-15; E176P) (protein)
chain: B1 chain with P109A, P130S, P441K
B5: EsOgl (Exiguobacterium artemiae 255-15; A109P/E176P/S130P) (protein)
chain: B1 chain with P441K
B6: EsOgl (Exiguobacterium artemiae 255-15; K441P) (protein)
chain: B1 chain with P109A, P130S, P176E
B7: EsOgl (Exiguobacterium artemiae 255-15; S130P) (protein)
chain: B1 chain with P109A, P176E, P441K
B8: EsOgl (Exiguobacterium artemiae 255-15; A109P/S130P) (protein)
chain: B1 chain with P176E, P441K

substrate: O=[N+]([O-])c1ccc(O[C@H]2O[C@H](CO)[C@@H](O)[C@H](O)[C@H]2O)cc1; experiment: purified protein; conditions: 33 mM potassium phosphate pH 7.0, 25 °C

Q: Which Km does the source give for B1 here?
A: Its Km is 850 ± 20 µM.

Q: What about the kcat/Km of the same protein?
A: The kcat/Km was 167000 M⁻¹ s⁻¹.

Q: B2 was tested. Which Km did it give?
A: Its Km is 1430 ± 90 µM.

Q: What about the kcat/Km of the same protein?
A: The kcat/Km was 167000 M⁻¹ s⁻¹.

Q: Which Km does the source give for B3 here?
A: Its Km is 1060 ± 20 µM.

Q: And the kcat/Km?
A: Its kcat/Km is 233000 M⁻¹ s⁻¹.

Q: Which results are given for B4?
A: Km: 1970 ± 80 µM; kcat/Km: 167000 M⁻¹ s⁻¹

Q: With B5 as the protein, how does the Km read?
A: Its Km is 920 ± 70 µM.

Q: What about the kcat/Km of the same protein?
A: The kcat/Km was 217000 M⁻¹ s⁻¹.

Q: With B6 as the protein, how does the Km read?
A: Its Km is 930 ± 80 µM.

Q: What about the kcat/Km of the same protein?
A: Its kcat/Km is 183000 M⁻¹ s⁻¹.

Q: What does the source list for B7?
A: Km: 1660 ± 60 µM; kcat/Km: 250000 M⁻¹ s⁻¹

Q: Which Km does the source give for B8 here?
A: The Km was 1370 ± 40 µM.

Q: What about the kcat/Km of the same protein?
A: Its kcat/Km is 167000 M⁻¹ s⁻¹.
